In IntAct's records for PubMed 19172752:

B1: General transcription factor IIH subunit 4 (Homo sapiens), Q92759 (parent)
chain: MESTPSRGLNRVHLQCRNLQEFLGGLSPGVLDRLYGHPATCLAVFRELPSLAKNWVMRMLFLEQPLPQAAVALWVKKEFSKAQEESTGLLSGLRIWHTQLLPGGLQGLILNPIFRQNLRIALLGGGKAWSDDTSQLGPDKHARDVPSLDKYAEERWEVVLHFMVGSPSAAVSQDLAQLLSQAGLMKSTEPGEPPCITSAGFQFLLLDTPAQLWYFMLQYLQTAQSRGMDLVEILSFLFQLSFSTLGKDYSVEGMSDSLLNFLQHLREFGLVFQRKRKSRRYYPTRLAINLSSGVSGAGGTVHQPGFIVVETNYRLYAYTESELQIALIALFSEMLYRFPNMVVAQVTRESVQQAIASGITAQQIIHFLRTRAHPVMLKQTPVLPPTITDQIRLWELERDRLRFTEGVLYNQFLSQVDFELLLAHARELGVLVFENSAKRLMVVTPAGHSDVKRFWKRQKHSS
partner: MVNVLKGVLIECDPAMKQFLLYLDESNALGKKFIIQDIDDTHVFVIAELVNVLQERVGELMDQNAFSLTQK

Variants of: B1
Conditions: with tf2h5_human GTF2H5, Q6ZYL4

Variant | effect of a mutation on the interaction
K438A;R439A | decreasing interaction
